Results as given in paper PMC3087855 (Nature structural & molecular biology, 2011).

Target: the molecule itself
Assay: crystal structure

B1: bacteriophage P22 portal protein core (residues 1-602) (domain or fragment, UniProt P26744 1-602, looked up)
chain: MADNENRLESILSRFDADWTASDEARREAKNDLFFSRVSQWDDWLSQYTTLQYRGQFDVVRPVVRKLVSEMRQNPIDVLYRPKDGARPDAADVLMGMYRTDMRHNTAKIAVNIAVREQIEAGVGAWRLVTDYEDQSPTSNNQVIRREPIHSACSHVIWDSNSKLMDKSDARHCTVIHSMSQNGWEDFAEKYDLDADDIPSFQNPNDWVFPWLTQDTIQIAEFYEVVEKKETAFIYQDPVTGEPVSYFKRDIKDVIDDLADSGFIKIAERQIKRRRVYKSIITCTAVLKDKQLIAGEHIPIVPVFGEWGFVEDKEVYEGVVRLTKDGQRLRNMIMSFNADIVARTPKKKPFFWPEQIAGFEHMYDGNDDYPYYLLNRTDENSGDLPTQPLAYYENPEVPQANAYMLEAATSAVKEVATLGVDTEAVNGGQVAFDTVNQLNMRADLETYVFQDNLATAMRRDGEIYQSIVNDIYDVPRNVTITLEDGSEKDVQLMAEVVDLATGEKQVLNDIRGRYECYTDVGPSFQSMKQQNRAEILELLGKTPQGTPEYQLLLLQYFTLLDGKGVEMMRDYANKQLIQMGVKKPETPEEQQWLVEAQQAKQG
modifications: selenomethionine derivatized (methionines replaced by selenomethionine)
**Q.** With B1 as the protein, how does the “stoichiometry N” value read?
**A.** 12
